For assay [1], the target named is CDK2 (Homo sapiens, UniProt P24941). The assay is described as follows: Phage Library Screening with NGS, CDK2. Type of assay: binding. Set-up: Full length CDK2 (residues 1-298) with an N-terminal GST-3C-6×his-TEV tag; GST-3C-6×his-TEV (N, cleaved yes); made in house; host or cells: Sf9 (Bac-to-Bac baculovirus). The conditions noted are these: for phage screen counts, Target Concentration 10: CDK2, target concentration 10; for phage screen counts, Target Concentration 30: CDK2, target concentration 30; for phage screen counts, Target Concentration 100: CDK2, target concentration 100; for phage screen counts, Target Concentration 300: CDK2, target concentration 300.

Assay [2] deals with T1, PPIA (Homo sapiens, UniProt P62937).
T1 construct: Full length PPIA (residues 1-165) with an N-terminal 6×his-yBBR-TEV tag; 6×his-yBBR-TEV (N); made in house; host or cells: E. coli BL21 (DE3) CodonPlus RIPL
The assay is described as follows: Phage Library Screening with NGS, PPIA. The class given is binding.

The mark [3] stands for this setting: CDK2, target concentration 1000, first column.
The mark [4] stands for this setting: CDK2, target concentration 1000, second column.
The mark [5] stands for this setting: target concentration 1000, first column.
Setting [6] is: target concentration 1000, second column.

The record followed here is patent US20240376151A1, “STAPLED PEPTIDES AND METHODS THEREOF” (FOG PHARMACEUTICALS, INC., priority 2022, published 2024).

Numbered stars: 1 amine (or outer) side, 2 acyl side, 3 side chain; on linkers, the order of the positions; unused ones are H or OH. Bridge positions count the residues as written; N and C are the ends. Ends that are not written are not given here. Phenylene(1,4-NHCOCH2)2 = O=C(C[*:1])Nc1ccc(NC(=O)C[*:2])cc1

T1 sequence (P62937 whole entry, the tested form may be a part): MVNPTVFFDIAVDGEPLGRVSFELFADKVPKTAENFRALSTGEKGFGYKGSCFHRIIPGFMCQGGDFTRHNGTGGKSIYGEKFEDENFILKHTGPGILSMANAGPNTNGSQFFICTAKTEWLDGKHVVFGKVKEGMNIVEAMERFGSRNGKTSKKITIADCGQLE

With “DPAWWRCSIAAMECHHD (linker 7-14 via Phenylene(1,4-NHCOCH2)2 (inferred))”, in assay [1], the “phage screen counts, Target Concentration 10” value turned out to be 0; the “phage screen counts, Target Concentration 30” value was found to be 0; the “phage screen counts, Target Concentration 100” value came to 13; the “phage screen counts, Target Concentration 300” value is listed as 39. For the same sequence, the “phage screen counts, Target Concentration 1000” value in assay [1] (setting [3]) stood at 119. Moreover, the “phage screen counts, Target Concentration 1000” value in assay [1] (setting [4]) came to 102.
As for “DPAWWHCVIAALDCETQ (linker 7-14 via Phenylene(1,4-NHCOCH2)2 (inferred))”, in assay [1], the “phage screen counts, Target Concentration 10” value is listed as 0; the “phage screen counts, Target Concentration 30” value stood at 15; the “phage screen counts, Target Concentration 100” value is given as 5; the “phage screen counts, Target Concentration 300” value is 93. In assay [1] (setting [3]), the “phage screen counts, Target Concentration 1000” value came to 119. Further, in assay [1] (setting [4]), the “phage screen counts, Target Concentration 1000” value is recorded as 141.
For “PTCLNAFFACE (linker 3-10 via Phenylene(1,4-NHCOCH2)2 (inferred))”, in assay [1], the “phage screen counts, Target Concentration 10” value was found to be 0; the “phage screen counts, Target Concentration 30” value stood at 0; the “phage screen counts, Target Concentration 100” value is reported as 0; the “phage screen counts, Target Concentration 300” value came out at 1. Besides, the “phage screen counts, Target Concentration 1000” value in assay [1] (setting [3]) came to 109. The “phage screen counts, Target Concentration 1000” value in assay [1] (setting [4]) is 35.
For the sequence “DPAWWECIVAALECSDR (linker 7-14 via Phenylene(1,4-NHCOCH2)2 (inferred))”, in assay [1], the “phage screen counts, Target Concentration 10” value is reported as 0; the “phage screen counts, Target Concentration 30” value is recorded as 0; the “phage screen counts, Target Concentration 100” value is 0; the “phage screen counts, Target Concentration 300” value was found to be 62. Besides, the “phage screen counts, Target Concentration 1000” value in assay [1] (setting [3]) was 76. Also, the “phage screen counts, Target Concentration 1000” value in assay [1] (setting [4]) is on record as 90.
Regarding “PACVSAFFACL (linker 3-10 via Phenylene(1,4-NHCOCH2)2 (inferred))”, in assay [1], the “phage screen counts, Target Concentration 10” value is 0; the “phage screen counts, Target Concentration 30” value is 0; the “phage screen counts, Target Concentration 100” value amounted to 0; the “phage screen counts, Target Concentration 300” value is 0. For the same sequence, the “phage screen counts, Target Concentration 1000” value in assay [1] (setting [3]) turned out to be 151. In addition, the “phage screen counts, Target Concentration 1000” value in assay [1] (setting [4]) worked out at 19.
With “CLSAFFSCTY (linker 1-8 via Phenylene(1,4-NHCOCH2)2 (inferred); not fully specified (C-terminus))”, in assay [1], the “phage screen counts, Target Concentration 10” value was determined as 29; the “phage screen counts, Target Concentration 30” value was determined as 0; the “phage screen counts, Target Concentration 100” value stood at 0; the “phage screen counts, Target Concentration 300” value is recorded as 0. The “phage screen counts, Target Concentration 1000” value in assay [1] (setting [3]) turned out to be 111. In addition, the “phage screen counts, Target Concentration 1000” value in assay [1] (setting [4]) is recorded as 330.
Regarding “PFECLSAFFSC (linker 4-11 via Phenylene(1,4-NHCOCH2)2 (inferred))”, in assay [1], the “phage screen counts, Target Concentration 10” value was 0; the “phage screen counts, Target Concentration 30” value came to 0; the “phage screen counts, Target Concentration 100” value amounted to 0; the “phage screen counts, Target Concentration 300” value is on record as 1. Further, in assay [1] (setting [3]), the “phage screen counts, Target Concentration 1000” value is given as 212. For the same sequence, in assay [1] (setting [4]), the “phage screen counts, Target Concentration 1000” value was found to be 44.
For the sequence “PECLVAFFSCV (linker 3-10 via Phenylene(1,4-NHCOCH2)2 (inferred))”, in assay [1], the “phage screen counts, Target Concentration 10” value is given as 0; the “phage screen counts, Target Concentration 30” value worked out at 1; the “phage screen counts, Target Concentration 100” value was determined as 9; the “phage screen counts, Target Concentration 300” value turned out to be 9. The “phage screen counts, Target Concentration 1000” value in assay [1] (setting [3]) came out at 422. Also, the “phage screen counts, Target Concentration 1000” value in assay [1] (setting [4]) is 142.
As to “FECLDAFFSC (linker 3-10 via Phenylene(1,4-NHCOCH2)2 (inferred); not fully specified (N-terminus, C-terminus))”, in assay [1], the “phage screen counts, Target Concentration 10” value is on record as 0; the “phage screen counts, Target Concentration 30” value came out at 0; the “phage screen counts, Target Concentration 100” value was determined as 0; the “phage screen counts, Target Concentration 300” value came to 49. Also, in assay [1] (setting [3]), the “phage screen counts, Target Concentration 1000” value is reported as 982. Moreover, in assay [1] (setting [4]), the “phage screen counts, Target Concentration 1000” value is 405.
“DPAWWMCTIAAIECETT (linker 7-14 via Phenylene(1,4-NHCOCH2)2 (inferred))”: in assay [1], the “phage screen counts, Target Concentration 10” value amounted to 0; the “phage screen counts, Target Concentration 30” value was determined as 0; the “phage screen counts, Target Concentration 100” value turned out to be 73; the “phage screen counts, Target Concentration 300” value was 973. Moreover, the “phage screen counts, Target Concentration 1000” value in assay [1] (setting [3]) is on record as 909. Also, the “phage screen counts, Target Concentration 1000” value in assay [1] (setting [4]) is given as 998.
With “DPAWWVCAIAAIECSDV (linker 7-14 via Phenylene(1,4-NHCOCH2)2 (inferred); not fully specified (N-terminus, C-terminus))”, in assay [1], the “phage screen counts, Target Concentration 10” value worked out at 38; the “phage screen counts, Target Concentration 30” value is 634; the “phage screen counts, Target Concentration 100” value was 2330; the “phage screen counts, Target Concentration 300” value is 12368. The “phage screen counts, Target Concentration 1000” value in assay [1] (setting [3]) was found to be 7673. Further, in assay [1] (setting [4]), the “phage screen counts, Target Concentration 1000” value was 8315.
As for “DPAWYACIVAAVDCEHS (linker 7-14 via Phenylene(1,4-NHCOCH2)2 (inferred))”, in assay [1], the “phage screen counts, Target Concentration 10” value is recorded as 0; the “phage screen counts, Target Concentration 30” value came out at 0; the “phage screen counts, Target Concentration 100” value is 8; the “phage screen counts, Target Concentration 300” value is 46. In assay [1] (setting [3]), the “phage screen counts, Target Concentration 1000” value is listed as 206. In assay [1] (setting [4]), the “phage screen counts, Target Concentration 1000” value is 115.
On to “DPAWYECVVAAIECHAY (linker 7-14 via Phenylene(1,4-NHCOCH2)2 (inferred))”, for which, in assay [1], the “phage screen counts, Target Concentration 10” value was 0; the “phage screen counts, Target Concentration 30” value was 12; the “phage screen counts, Target Concentration 100” value is on record as 0; the “phage screen counts, Target Concentration 300” value was 286. For the same sequence, the “phage screen counts, Target Concentration 1000” value in assay [1] (setting [3]) is reported as 411. Also, the “phage screen counts, Target Concentration 1000” value in assay [1] (setting [4]) worked out at 473.
Turning to “PMACLSAFFTC (linker 4-11 via Phenylene(1,4-NHCOCH2)2 (inferred))”, in assay [1], the “phage screen counts, Target Concentration 10” value is 0; the “phage screen counts, Target Concentration 30” value worked out at 0; the “phage screen counts, Target Concentration 100” value was 0; the “phage screen counts, Target Concentration 300” value came to 16. In assay [1] (setting [3]), the “phage screen counts, Target Concentration 1000” value is reported as 114. Further, the “phage screen counts, Target Concentration 1000” value in assay [1] (setting [4]) was 176.
On to “PCLDAFFYCVT (linker 2-9 via Phenylene(1,4-NHCOCH2)2 (inferred))”, for which, in assay [1], the “phage screen counts, Target Concentration 10” value is recorded as 0; the “phage screen counts, Target Concentration 30” value came out at 0; the “phage screen counts, Target Concentration 100” value is 0; the “phage screen counts, Target Concentration 300” value is reported as 7. Further, the “phage screen counts, Target Concentration 1000” value in assay [1] (setting [3]) is 18. In assay [1] (setting [4]), the “phage screen counts, Target Concentration 1000” value was determined as 51.
On to “DPAWWTCSVAAIQCWDS (linker 7-14 via Phenylene(1,4-NHCOCH2)2 (inferred))”, for which, in assay [1], the “phage screen counts, Target Concentration 10” value is reported as 0; the “phage screen counts, Target Concentration 30” value is reported as 0; the “phage screen counts, Target Concentration 100” value was 10; the “phage screen counts, Target Concentration 300” value was found to be 69. For the same sequence, the “phage screen counts, Target Concentration 1000” value in assay [1] (setting [3]) is recorded as 119. Also, in assay [1] (setting [4]), the “phage screen counts, Target Concentration 1000” value stood at 243.
For the sequence “WSCLSAYFSC (linker 3-10 via Phenylene(1,4-NHCOCH2)2 (inferred))”, in assay [1], the “phage screen counts, Target Concentration 10” value is 0; the “phage screen counts, Target Concentration 30” value was determined as 0; the “phage screen counts, Target Concentration 100” value amounted to 0; the “phage screen counts, Target Concentration 300” value turned out to be 0. Also, the “phage screen counts, Target Concentration 1000” value in assay [1] (setting [3]) was 19. Further, the “phage screen counts, Target Concentration 1000” value in assay [1] (setting [4]) worked out at 189.
Take “YECLEAFFNC (linker 3-10 via Phenylene(1,4-NHCOCH2)2 (inferred))”: in assay [1], the “phage screen counts, Target Concentration 10” value was determined as 0; the “phage screen counts, Target Concentration 30” value was determined as 0; the “phage screen counts, Target Concentration 100” value stood at 0; the “phage screen counts, Target Concentration 300” value was 2. In addition, in assay [1] (setting [3]), the “phage screen counts, Target Concentration 1000” value is reported as 208. Besides, in assay [1] (setting [4]), the “phage screen counts, Target Concentration 1000” value was 193.
Regarding “DPAWWRCSVAAIDCHWN (linker 7-14 via Phenylene(1,4-NHCOCH2)2 (inferred))”, in assay [1], the “phage screen counts, Target Concentration 10” value was 0; the “phage screen counts, Target Concentration 30” value is given as 10; the “phage screen counts, Target Concentration 100” value is 3; the “phage screen counts, Target Concentration 300” value is recorded as 93. Moreover, the “phage screen counts, Target Concentration 1000” value in assay [1] (setting [3]) amounted to 65. The “phage screen counts, Target Concentration 1000” value in assay [1] (setting [4]) worked out at 230.
In the case of PDCHVAAYICY, in assay [2], the “phage screen counts, Target Concentration 10” value was found to be 0; the “phage screen counts, Target Concentration 30” value is reported as 0; the “phage screen counts, Target Concentration 100” value is recorded as 3; the “phage screen counts, Target Concentration 300” value is recorded as 38. The “phage screen counts, Target Concentration 1000” value in assay [2] (setting [5]) came out at 54. Moreover, in assay [2] (setting [6]), the “phage screen counts, Target Concentration 1000” value was determined as 44.
Take DPARADCRVAAYWCYHQ: in assay [2], the “phage screen counts, Target Concentration 10” value came out at 0; the “phage screen counts, Target Concentration 30” value was determined as 1; the “phage screen counts, Target Concentration 100” value worked out at 6; the “phage screen counts, Target Concentration 300” value was determined as 6. Further, the “phage screen counts, Target Concentration 1000” value in assay [2] (setting [5]) came out at 11. The “phage screen counts, Target Concentration 1000” value in assay [2] (setting [6]) came to 7.
